Results on 15 molecules are retold here after patent US20240262892A1 (NANJING VAZYME BIOTECH, published 2024).

In assay [1] the target is T1, SARS-CoV-2 S1 protein NTD (N-terminal domain of spike protein of SARS-CoV-2) (SARS-CoV-2, UniProt P0DTC2 14-305).
T1 construct: also called S1-NTD; NTD of S1 subunit
The experiment in a line: biolayer interferometry, ForteBio Octet RED96e, NTD 250 nM to 7.81 nM, 1:1 model.

For assay [2], the target named is T2, SARS-CoV-2 S1 (S1 subunit of spike protein of SARS-CoV-2) (SARS-CoV-2, UniProt P0DTC2 14-685).
T2 construct: domain: S1; also called SARS-CoV-2 Spike protein S1 domain
The assay is described as follows: ELISA, SARS-CoV-2 S1 coated on the plate, anti-human IgG-HRP, OD450. For orientation: An ELISA detects its analyte on a solid surface through an enzyme-linked reagent.

Assay [3] addresses T1, SARS-CoV-2 S1 protein NTD (N-terminal …). The experiment in a line: ELISA, S1-NTD coated on the plate, antibody at one concentration, anti-human IgG-HRP.
Assay [4] has as its target T3, SARS-CoV-2 RBD (receptor binding domain of spike protein of SARS-CoV-2) (SARS-CoV-2, UniProt P0DTC2 319-541). The assay is described as follows: ELISA, S1-RBD coated on the plate, antibody at one concentration, anti-human IgG-HRP.
In assay [5] the target is T3, SARS-CoV-2 RBD (receptor binding domain …). The experiment in a line: HTRF ACE2/RBD binding assay (665/620 ratio); blocked ligand: ACE2. For orientation: TR-FRET usually uses a lanthanide donor and a delayed reading to cut background.
Assay [6] shares this target.
Assay [7] has the same target. The experiment in a line: ELISA, SARS-CoV-2 RBD coated on the plate, anti-human IgG-HRP, OD450.
The target is the same in assay [8]. The source holds these as a separate data set.
Assay [9] shares this target. The assay is described as follows: HTRF ACE2/RBD binding assay, competition with ACE2.

Read-outs that look alike come from different tables or passages of the source.

B1: Antibody 14-8 (antibody, V domains shown)
VH: QVQLVQSGAEVKKPGASVKVSCKASGYTFTGYYIHWVRQAPGKGPEWMGWINPNSGGTNYAQKFQGWVTMTRDTSISAAYMELSRLKFDDTAIYYCAKSGEKVGADLGYYDYGMDLWGQGTTVTVSS
VL: SYELTQPPSVSVSPGQTARITCSGDALPKQYAYWYQQKPGQAPVMVIYKDTERPSGIPERFSGSSSGTTVTLTISGVQAEDEADYNCQSVDSSGAYVVFGGGTKLTVL
In turn, B1 registered a Kd in assay [1] of 7.08 nM. Also, the “EC50 (read off the curve)” value in assay [2] was approximately 0.1 µg/mL. For the same molecule, the figures for the OD450 in assay [3] and in [4] were 3.98 and 0.0693, respectively.

B2: Antibody 29-2 (antibody, V domains shown)
VH: QITLKESGPTLVKPTQTLTLTCTFSGFSLSSSGMGVGWIRQPPGKALEWLALIYWNDDKRYSPSLKSRLTITKDTSKNQVVLTLTNMDPVDTATYYCAHTTLYNNCPFDYWGQGTLVTVSS
VL: SYVLTQPPSVSVAPGKTARITCGGNNIGSYSVHWYQQRPGQAPVLVIYYDSDRPSGIPERFSGSNSGNTATLTISRVEAGDEADYYCQVWDNSSNHPWVFGGGTKLTVL
On to B2, for which the IC50 in assay [5] was 0.117 µg/mL. The molecule also came in with an equilibrium dissociation constant (Kd) in assay [6] of 0.392 nM. For the same molecule, the concentration for a half-maximal effect (EC50) in [7] is 0.0372 µg/mL.

B3: Antibody 12-9 (antibody, V domains shown)
VH: EVQLVESGGGLVKPGGSLRLSCAASEFTFSSYSMNWVRQAPGKGLEWVSSISSSGSDIYYADSVKGRFTISRDNAKKSLYLQMNSLRVEDTAVYYCATNGGAHSSTWSFYGMDVWGQGTTVTVSS
VL: SYELTQPPSVSVSPGQTATITCSGDKLGDKYACWYQQRPGQSPVLVIYQDSKRPSGIPERFSGSNSGNTATLTIGGTQAMDEAAYFCQAWDSNTGVFGGGTKLTVL
Regarding B3, in assay [1], the Kd amounted to 16.7 nM. Besides, the “EC50 (read off the curve)” value in assay [2] is approximately 0.03 µg/mL. Moreover, the values for the OD450 in assay [3] and in [4] were 3.76 and 0.0764, respectively.

B4: Antibody 12-17 (antibody, V domains shown)
VH: EVQLVESGGGLVKPGGSLRLSCAASGFTLNSYSMNWVRQAPGKGLEWVSSISSTSSDIYYADSVKGRFTISRDNAKNSVDLQMNSLRAEDTAVYYCATNGGAHRNTWSFYGMDVWGQGTTVTVSS
VL: SYELTQPPSVSVSPGQTASITCSGDKLGDKYASWYQQKPGQSPVLVIYQDTKRPSGIPERFSGSNSGNTVTLTISGTQAMDEADYYCQAWDSSTGVFGGGTKLTVL
For B4, in assay [1], the equilibrium dissociation constant (Kd) was found to be 5.49 nM. In addition, the 50% effective concentration (EC50 (read off the curve)) in assay [2] was approximately 0.04 µg/mL. The OD450 in assay [3] worked out at 3.95; in [4], 0.0641.

B5: Antibody 9-1 (antibody, V domains shown)
VH: QLQLQESGPGLVKPSETLSLTCTVSGGSISSSTYYWAWIRQPPGKGLEWIGSIYYSGSTYYNPSLKSRVTISVHTSKNQFSLKLTSVTAADTAVYYCARSMGLHDYWGQGTLVTVSS
VL: DIQMTQSPSSLSASVGDRVTITCRASQGIGNSLAWYQQKPGRAPKFLLYAASTLESGVPSRFSGSGSGTHFTLTISSLQPEDFATYFCQQYYSTPPYTFGQGTRLEIK
For B5, the IC50 in [5] is 0.105 µg/mL. Besides, the Kd in assay [6] was determined as 0.835 nM. The half-maximal effective concentration (EC50) in [7] amounted to 0.0886 µg/mL.

B6: Antibody 8-1 (antibody, V domains shown)
VH: EVQLVESGGGLIQPGGSLRLSCAASGLTVSSNYMTWVRQAPGKGLEWVSVIYSGGSTFYAESVKGRFTISRDNSKNTLYLQMNSLRAEDTAVYYCARDLVVYGMDVWGQGTTVIVSS
VL: DIQLTQSPSFLSASVGDRVTITCRASQGISSDLAWYQQKPGKAPKLLIYAASTLQSGVPSRFSGSGSGTEFTLTISSLQPEDFATYYCQQLNSHPLAFGPGTKVDIK
B6: the Kd in assay [8] was 0.047 nM. Further, in assay [5], the IC50 was 0.103 µg/mL. This molecule displayed an EC50 in [7] of 0.0506 µg/mL.

B7: Antibody 9-8 (antibody, V domains shown)
VH: EVQLVESGGGVVQPGGSLRLSCAASGFTFDDYAIHWVRQAPGKGLEWVSLISGDGGTTYYADFVKGRFTISRDNSKNSLYLQMNSLRTEDTALYYCAKDIPVCSSTICYRFTARLHGMDVWGQGTTVTVSS
VL: DIQMTQSPSSLSASVGDRVTITCRASQSISSYLNWYQQKPGKAPKLLIYTASSLQSGVPSRFSGSGSGADFTLTISSLQPEDFATYYCQQRYSTPLTFGGGTKVEIK
In assay [9], B7 came in with an IC50 of 4.14 µg/mL. This molecule also showed an equilibrium dissociation constant (Kd) in [6] of 4.75 nM. In addition, the half-maximal effective concentration (EC50) in [7] is 0.0243 µg/mL.

B8: Antibody 13-17 (antibody, V domains shown)
VH: QDQLVQSGAEVKKPGASVKVSCKVSGYTLPELSLHWVRQPPGKGLEWMGGFDPEDGETIYAQKFQGRVTMTEDTSTDTAYMELSSLRSEDTAVYYCAASTPMGGHTDWLDPWGQGTLVTVSS
VL: QSVLTQPPSVSAAPGQKVTISCSGSSSNIGNNYVSWYQQLPGTAPKLLIYDNNKRPSGIPDRFSGSKSGTSATLGITGLQTGDEADYYCGTWDSSLSAGVFGGGTKLTVL
In the case of B8, the affinity in assay [1], expressed as Kd, was 4.39 nM. In addition, in [2], the “EC50 (read off the curve)” value was approximately 0.1 µg/mL. In addition, the OD450 in assay [3] was 3.91; in assay [4], 0.0815.

B9: Antibody 12-11 (antibody, V domains shown)
VH: QVQVVQSGAEVKKPGASVKVSCKVSGYTLIEISIHWVRQAPGKGLEWMGGFDPEAGETIYAQKFQGRVTMTEDTSTDTAYMEVSSLRSEDTAVYYCATGPAIAAAETNWFDLWGQGTLVTVSS
VL: QSALTQPASVSGSPGQSITISCTGTSSDVGSYNYVSWYQQHPGKAPKLMIYDVTKRPSGVPDRFSGSKSGNTASLTISGLQAEDEADYYCSSYTSSSTWVFGGGTKLTVL
For the molecule B9, the Kd in assay [1] turned out to be 5.82 nM. The “EC50 (read off the curve)” value in assay [2] is approximately 0.1 µg/mL. Also, the results for the OD450 in assay [3] and in assay [4] were 3.93 and 0.0638, respectively.

B10: Antibody 12-13 (antibody, V domains shown)
VH: QVQVVQSGAEVKKPGASVKVSCKVSGYTLTELSIHWVRQTPGKGLEWMGGFDPEDGETIYAQWLQGRVTMTEDTSTDIAYMELSSLRHEDTAVYYCATGPAIAGAGTNWFDPRGQGTLVIVSS
VL: QSALTQPASVSGSPGQSITISCTGTSSDVGGYNYVSWYQQHPGKAPKLMIYDVSKRPSGVPDRFSGSKSGNTASLTISGLQAEDEADYYCTSYTNSSTWVFGGGTKLTVL
In [1], B10 yielded a Kd of 5.61 nM. Moreover, the “EC50 (read off the curve)” value in [2] was approximately 0.07 µg/mL. Also, the OD450 came to 3.96 in [3] and 0.06 in assay [4].

B11: Antibody 5-10 (antibody, V domains shown)
VH: EVQLLESGGGLVQPGGSLRLSCAASGFTFSSYAMSWVRQAPGKGLEWVSAIVGSGGSTYYADSVKGRFIISRDNSKNTLYLQMNSLRAEDTAVYYCAKSLIYGHYDILTGAYYFDYWGQGTLVTVSS
VL: DIQMTQSPSSVSASVGDRVTIPCRASQGIGNWLAWYQQKPGKAPKLLIYAASSLQSGVPSRFSGSGSGTDFTLTISSLQPEDFATYYCQQANSFPPFGQGTRLEIK
As to B11, the Kd in assay [6] stood at 4.32 nM. The same molecule showed an EC50 in [7] of 0.0269 µg/mL.

B12: Antibody 34-2 (antibody, V domains shown)
VH: EVQLVESGGGLVQPGRSLRLSCAASGFTFDESAMHWVRQAPGEGLEWVSGISWNSGRIAYADSVRGRFTISRDNAKNSLYLQMNSLRAEDTALYFCALTTSGWFSFDYWGQGTLVTVSS
VL: SYVLTQPPSVSVAPGKTARITCGGNNIGSKSVHWYQQKPGQAPVPVIYYDSDRPSGIPERFSGSNSGNTATLTISRVEVGDEADYYCQVWDSSSDRAVFGGGTTLTVL
B12: in assay [5], the IC50 worked out at 0.115 µg/mL. The Kd in assay [6] stood at 0.217 nM. The molecule also came in with an EC50 in assay [7] of 0.0493 µg/mL.

B13: Antibody 8-3 (antibody, V domains shown)
VH: EVQLVESGGGLVQPGGSLRLSCAASGITVSSNYMNWVRQAPGKGLDWVSVIYSGGSTFYADSVKGRFIISRDNSKNTLFLQMDSLRVEDTAVYYCARDLVVRGVDIWGQGTMVTVSS
VL: DIQLTQSPSFLSASVGDRVTITCRASQGISSDLAWYHQKPGKAPKLLIYAASTLQSGVPSRFSGSGSGTEFTLTISSLQPEDFATYYCQQLNSYRGLIFGGGTKVEIK
Turning to B13, the IC50 in assay [5] was found to be 0.109 µg/mL. The molecule also yielded a dissociation constant Kd in assay [6] of 1.55 nM. This molecule also yielded an EC50 in assay [7] of 0.0483 µg/mL.

B14: Antibody 29-13 (antibody, V domains shown)
VH: QITLKESGPTLVKPTQTLTLTCTFSGFSLSTSGVGVGWIRQPPGKALEWLALIYWDDDKRYSPSLKSRLSITKDTSKNQVALTVTNMDPVDTATYYCAHRRPGPGSYYFDYWGQGTLVTVSS
VL: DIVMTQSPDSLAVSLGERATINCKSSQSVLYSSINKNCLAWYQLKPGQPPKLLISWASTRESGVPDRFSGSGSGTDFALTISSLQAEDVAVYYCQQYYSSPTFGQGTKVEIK
Take B14: in [5], the 50% inhibitory concentration (IC50) turned out to be 0.0954 µg/mL. Moreover, binding in assay [6] was put at a Kd of 1.28 nM. In assay [7], this molecule showed an EC50 of 0.00473 µg/mL.

B15: Antibody 14-4 (antibody, V domains shown)
VH: QMQLVQSGPEVKKPGTSVKVSCKASGFTFTTSAVQWVRQARGQRLEWIGWIVVGSGNTNYAQKFQERVTITRDMSTSTGYMELSSLRSEDTAVYYCAAPNCNRTSCDDGFDIWGQGTMVTVSS
VL: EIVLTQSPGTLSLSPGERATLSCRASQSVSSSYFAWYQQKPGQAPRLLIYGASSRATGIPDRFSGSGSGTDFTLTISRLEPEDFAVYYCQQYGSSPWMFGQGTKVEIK
As to B15, the half-inhibitory concentration (IC50) in assay [5] came out at 0.103 µg/mL. The Kd in assay [6] is 2.62 nM. The same molecule came in with an EC50 in assay [7] of 0.0162 µg/mL.

A word on the Kd: it is a measure of binding affinity in units of concentration. Higher therefore signals a looser complex. By EC50 (read off the curve) is commonly meant the midpoint of the concentration-response curve. Read a high EC50 (read off the curve) as a need for much substance. What is called IC50 is the concentration that gives 50% inhibition. Usually EC50 stands for the concentration that produces a half-maximal response. High values mean a need for much substance, low ones an effect from little substance.
